Measured values reported in patent US20220411495A1, “POSITIVE ALLOSTERIC MODULATORS OF THE CALCIUM-SENSING RECEPTOR” (VIB VZW, priority 2019, published 2022).

B1: Nb4: llama-derived CaSR-specific nanobody acting as PAM, SEQ ID NO:5 (protein)
VHH: QVQLVESGGGLVQAGGSLRLSCAASGRTFSTYRMGWFRQGLGKEREFVAAITANGVRTFYTDSVKGRFTISRDNAKNTLYLQMNSLQPDDTAVYLCAARRKGIFTVQQAQDITDWDYWGQGTQVTVSS
modifications: CaSR Nb4
B2: Nb5: llama-derived CaSR-specific nanobody, weakest PAM, SEQ ID NO:8 (protein)
VHH: QVQLVESGGRLVQDGGSLRLSCAASGLTFSDYSMGWFRQVPGKEREFVAVIRRSNDSTYYADFVKGRFTISRDNAKNTVYLQMNSLQPEDTAVYSCAADRGGVGLTSAQTYAYWGQGTQVTVSS
modifications: CaSR Nb5

What was measured:
[1] = target: T1, extracellular Venus flytrap domain of CaSR (Homo sapiens, UniProt P41180); experiment: Surface plasmon resonance on isolated purified Venus flytrap domain; assay type: binding
T1 sequence (P41180 20-610 limits assumed): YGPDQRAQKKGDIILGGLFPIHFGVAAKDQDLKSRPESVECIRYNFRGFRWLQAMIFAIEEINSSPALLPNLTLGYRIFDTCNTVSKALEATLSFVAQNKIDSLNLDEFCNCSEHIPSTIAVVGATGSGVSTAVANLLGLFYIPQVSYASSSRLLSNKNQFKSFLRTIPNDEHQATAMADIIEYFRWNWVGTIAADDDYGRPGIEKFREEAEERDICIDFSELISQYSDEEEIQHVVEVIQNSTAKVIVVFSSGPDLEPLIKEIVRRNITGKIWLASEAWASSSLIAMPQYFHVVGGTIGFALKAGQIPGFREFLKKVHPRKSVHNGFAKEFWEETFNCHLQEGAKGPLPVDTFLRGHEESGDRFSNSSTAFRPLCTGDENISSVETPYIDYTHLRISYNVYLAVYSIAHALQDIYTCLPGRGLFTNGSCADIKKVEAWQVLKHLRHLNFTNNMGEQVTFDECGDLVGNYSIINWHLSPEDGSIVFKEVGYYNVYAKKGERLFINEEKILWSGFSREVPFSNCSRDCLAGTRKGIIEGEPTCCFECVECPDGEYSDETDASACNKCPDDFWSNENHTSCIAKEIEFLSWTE

[2] = target: T2, human CaSR wild type (hCaSR WT) (Homo sapiens, UniProt P41180, E1011Q); experiment: Advanced phospho-ERK1/2 assay, HEK293 HA-hCaSR WT cells; assay type: cell-based; details: 5 μM nanobody, EC20 Ca2+
T2 construct: mGlu5 signal peptide (N, cleaved yes); expressed in transfected cells
T2 sequence (P41180 20-1078 E1011Q): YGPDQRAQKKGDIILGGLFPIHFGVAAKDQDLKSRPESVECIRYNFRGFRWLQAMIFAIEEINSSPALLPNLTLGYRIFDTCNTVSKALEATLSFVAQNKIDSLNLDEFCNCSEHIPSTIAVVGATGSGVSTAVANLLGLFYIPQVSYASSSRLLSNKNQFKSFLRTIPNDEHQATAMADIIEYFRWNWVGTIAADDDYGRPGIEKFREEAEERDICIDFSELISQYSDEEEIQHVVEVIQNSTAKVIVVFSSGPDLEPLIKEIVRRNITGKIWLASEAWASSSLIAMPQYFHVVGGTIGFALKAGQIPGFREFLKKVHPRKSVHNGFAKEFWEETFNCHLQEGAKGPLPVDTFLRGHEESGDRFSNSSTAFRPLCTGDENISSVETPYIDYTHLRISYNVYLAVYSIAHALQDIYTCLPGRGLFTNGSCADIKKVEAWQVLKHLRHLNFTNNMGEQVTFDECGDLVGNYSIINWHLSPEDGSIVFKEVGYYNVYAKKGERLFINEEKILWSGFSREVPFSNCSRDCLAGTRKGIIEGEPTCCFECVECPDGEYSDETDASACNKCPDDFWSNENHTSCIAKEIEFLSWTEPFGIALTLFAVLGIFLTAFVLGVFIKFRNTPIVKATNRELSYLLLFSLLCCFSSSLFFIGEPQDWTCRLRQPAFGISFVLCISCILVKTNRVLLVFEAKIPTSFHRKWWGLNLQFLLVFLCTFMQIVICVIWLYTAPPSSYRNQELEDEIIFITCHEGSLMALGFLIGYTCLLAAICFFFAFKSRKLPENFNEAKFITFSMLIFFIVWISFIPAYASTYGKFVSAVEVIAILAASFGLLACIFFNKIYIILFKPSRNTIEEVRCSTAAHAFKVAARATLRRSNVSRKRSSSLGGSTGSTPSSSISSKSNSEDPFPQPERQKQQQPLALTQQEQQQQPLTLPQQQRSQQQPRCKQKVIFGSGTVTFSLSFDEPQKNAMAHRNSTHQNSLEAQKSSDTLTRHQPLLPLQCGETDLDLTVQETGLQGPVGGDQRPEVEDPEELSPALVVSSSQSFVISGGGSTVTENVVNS
Method: Nanobodies were successfully purified by immobilized metal ion affinity chromatography (IMAC) and size exclusion chromatography (SEC) prior to pharmacological characterization (FIG. 1). Each nanobody was initially screened for Gq/11 activity in the Cisbio IP1 accumulation assay as this is the primary signaling pathway of CaSR (Chavez-Abiega et al., 2020). Whole HEK293 HA-hCaSR WT cells were pre-incubated for 30 minutes at 37° C. with a fixed nanobody concentration (5 μM) prior to stimulation with the endogenous ligand Ca^2+. The well characterized positive allosteric modulator (PAM) chemical NPS R-568 and negative allosteric modulator (NAM) chemical NPS 2143 were added as reference compounds. […] No nanobodies with agonist or NAM activity were observed when all nanobodies screened in the absence or in the presence of EC80 Ca^2+, respectively (FIGS. 4A and 4B). […] Except for CaSR Nb5, the same nanobodies acted as PAMs when ERK1/2 phosphorylation was measured in the presence of EC20 Ca^2+ (FIG. 2B). Again, none of the nanobodies elicited an agonist or NAM response (FIGS. 5B and 5C).
Phosphorylation of ERK1/2 at T202 and Y204 was measured with the HTRF® Advanced Phospho-ERK1/2 assay (Cisbio Bioassays, Codolet, France). […] Upon excitation at 340 nm, emission at 615 and 665 nm was measured on an EnVision multimode plate reader (PerkinElmer, Waltham, Mass., USA). […]

| Molecule | Binding to isolated Venus flytrap domain (SPR) [1] | Dependence of binding affinity on endogenous ligands (SPR) ([1]; Ca2+ and/or L-Trp) | PAM activity in phospho-ERK1/2 assay [2] |
| --- | --- | --- | --- |
| B1 | binds | synergistically increases upon the presence of both ligands |  |
| B2 |  |  | could not be confirmed |
